The record followed here is the supplement of paper PMC9112550, “Optimization of the antimicrobial peptide Bac7 by deep mutational scanning” (BMC Biology, 2022).
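Further: peptides expressed intracellularly from a pBAD plasmid library in pooled LB shake-flask culture, induced with 0.3% L-arabinose, DNA abundance read by NGS, three biological replicates, DESeq2 with apeglm shrinkage.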

The test system of this data set is Escherichia coli TOP10. The data set can be described thus: shrunken log2 fold change of peptide-encoding DNA abundance (4.5 h post-induction vs induction); higher = less antimicrobial activity (less host growth inhibition). The settings on record: time post-induction: 4.5 h; library: site-saturation at positions 5, 18, 19, 20.
For the sequence RRIRYRPPRLPRPRPRPQLSPRP, the “shrunken log2 fold change” value was -0.0974.

Turning to RRIRPRPPRLPRPRPRPMRQPRP, the “shrunken log2 fold change” value came out at 0.398.

Consider RRIRWRPPRLPRPRPRPIPHPRP, for which the “shrunken log2 fold change” value was 0.0496.

For RRIRPRPPRLPRPRPRPHYDPRP, the “shrunken log2 fold change” value was -0.459.

Take RRIRLRPPRLPRPRPRPYHFPRP: the “shrunken log2 fold change” value is -0.26.

Take RRIRVRPPRLPRPRPRPNWMPRP: the “shrunken log2 fold change” value was -0.235.

Turning to RRIRERPPRLPRPRPRPNVKPRP, the “shrunken log2 fold change” value was -0.195.

In the case of RRIRTRPPRLPRPRPRPRDEPRP, the “shrunken log2 fold change” value came out at 0.146.

For RRIRFRPPRLPRPRPRPGYHPRP, the “shrunken log2 fold change” value is -1.45.

With RRIRHRPPRLPRPRPRPRHVPRP, the “shrunken log2 fold change” value is -0.324.

Regarding RRIRIRPPRLPRPRPRPFLWPRP, the “shrunken log2 fold change” value was -0.0429.

Regarding RRIRKRPPRLPRPRPRPPIVPRP, the “shrunken log2 fold change” value was -0.121.

Turning to RRIRDRPPRLPRPRPRPFGWPRP, the “shrunken log2 fold change” value turned out to be 0.903.

Take RRIRTRPPRLPRPRPRPKFLPRP: the “shrunken log2 fold change” value amounted to 0.0687.

As for RRIRRRPPRLPRPRPRPTHFPRP, the “shrunken log2 fold change” value worked out at 1.01.

Take RRIRIRPPRLPRPRPRPAIIPRP: the “shrunken log2 fold change” value was -1.09.

Take RRIRWRPPRLPRPRPRPTKFPRP: the “shrunken log2 fold change” value is 0.142.

For the sequence RRIRTRPPRLPRPRPRPGGYPRP, the “shrunken log2 fold change” value is -0.0912.

For RRIRERPPRLPRPRPRPWTHPRP, the “shrunken log2 fold change” value is -0.0081.

On to RRIRHRPPRLPRPRPRPHHEPRP, for which the “shrunken log2 fold change” value is -0.0148.

On to RRIRCRPPRLPRPRPRPFKAPRP, for which the “shrunken log2 fold change” value is -0.713.

Take RRIRLRPPRLPRPRPRPNLIPRP: the “shrunken log2 fold change” value is -0.117.

Consider RRIRYRPPRLPRPRPRPVNTPRP, for which the “shrunken log2 fold change” value is -0.473.

On to RRIRTRPPRLPRPRPRPKTLPRP, for which the “shrunken log2 fold change” value worked out at 0.0791.

Regarding RRIRTRPPRLPRPRPRPINTPRP, the “shrunken log2 fold change” value was -0.687.

Consider RRIRIRPPRLPRPRPRPDKNPRP, for which the “shrunken log2 fold change” value was -0.673.

Consider RRIRGRPPRLPRPRPRPKNIPRP, for which the “shrunken log2 fold change” value is -0.101.

With RRIRWRPPRLPRPRPRPGILPRP, the “shrunken log2 fold change” value came out at 0.0649.

Regarding RRIRSRPPRLPRPRPRPYGYPRP, the “shrunken log2 fold change” value is -0.00281.

With RRIRHRPPRLPRPRPRPMCTPRP, the “shrunken log2 fold change” value is -0.696.

For RRIRSRPPRLPRPRPRPTHSPRP, the “shrunken log2 fold change” value is 0.186.

As for RRIRPRPPRLPRPRPRPRRLPRP, the “shrunken log2 fold change” value turned out to be 0.279.

In the case of RRIRTRPPRLPRPRPRPYDCPRP, the “shrunken log2 fold change” value is -0.304.

With RRIRGRPPRLPRPRPRPIYCPRP, the “shrunken log2 fold change” value worked out at 0.112.

Turning to RRIRFRPPRLPRPRPRPVWPPRP, the “shrunken log2 fold change” value came out at 0.263.

For RRIRTRPPRLPRPRPRPYVGPRP, the “shrunken log2 fold change” value was -0.689.

Regarding RRIRIRPPRLPRPRPRPIVSPRP, the “shrunken log2 fold change” value is -0.102.

With RRIRYRPPRLPRPRPRPLTCPRP, the “shrunken log2 fold change” value is -0.566.

For the sequence RRIRHRPPRLPRPRPRPPAAPRP, the “shrunken log2 fold change” value is 0.0555.

As for RRIRVRPPRLPRPRPRPRCAPRP, the “shrunken log2 fold change” value was found to be 0.517.

With RRIRPRPPRLPRPRPRPQYKPRP, the “shrunken log2 fold change” value was -0.129.

With RRIRIRPPRLPRPRPRPKSAPRP, the “shrunken log2 fold change” value is -0.0724.

In the case of RRIRGRPPRLPRPRPRPTIPPRP, the “shrunken log2 fold change” value is -0.0601.

On to RRIRGRPPRLPRPRPRPPFWPRP, for which the “shrunken log2 fold change” value turned out to be 1.09.

For RRIRTRPPRLPRPRPRPLIMPRP, the “shrunken log2 fold change” value is -0.718.

In the case of RRIRGRPPRLPRPRPRPMKRPRP, the “shrunken log2 fold change” value worked out at 0.343.

RRIRDRPPRLPRPRPRPVTAPRP: the “shrunken log2 fold change” value amounted to 0.157.

Regarding RRIRTRPPRLPRPRPRPYVHPRP, the “shrunken log2 fold change” value was -0.75.

For RRIRPRPPRLPRPRPRPAPLPRP, the “shrunken log2 fold change” value amounted to 0.407.

As for RRIRSRPPRLPRPRPRPLLNPRP, the “shrunken log2 fold change” value is -0.117.
